Test results as given in PMC11162321.

What was measured:
[1] = molecular target: F-actin (rabbit skeletal muscle α-actin, filamentous) (rabbit (Oryctolagus cuniculus)) (UniProt P68135); assay: other fluorescence titration
[2] = molecular target: F-actin (rabbit skeletal muscle α-actin, filamentous) (rabbit (Oryctolagus cuniculus)) (UniProt P68135); assay: cryo-EM structure
[3] = molecular target: F-actin (rabbit skeletal muscle α-actin, filamentous) (rabbit (Oryctolagus cuniculus)) (UniProt P68135); assay: fluorescence polarisation
[4] = molecular target: F-actin (rabbit skeletal muscle α-actin, filamentous) (rabbit (Oryctolagus cuniculus)) (UniProt P68135); assay: single-molecule TIRF microscopy

SipAC (SipA residues 425-685), unlabelled, sequence (P0CL52 425-685): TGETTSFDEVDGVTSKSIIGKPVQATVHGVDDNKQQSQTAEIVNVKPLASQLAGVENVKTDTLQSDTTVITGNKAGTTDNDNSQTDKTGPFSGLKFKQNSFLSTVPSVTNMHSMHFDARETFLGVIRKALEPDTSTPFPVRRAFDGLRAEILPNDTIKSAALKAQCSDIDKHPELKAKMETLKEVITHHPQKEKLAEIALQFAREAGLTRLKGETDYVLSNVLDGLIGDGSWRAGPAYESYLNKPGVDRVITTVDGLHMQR
FM-SipAC (SipA residues 425-685 labelled with fluorescein maleimide), sequence (P0CL52 425-685): as above
Alexa-647-SipAC (SipA residues 425-685 labelled with Alexa Fluor 647 maleimide), sequence (P0CL52 425-685): as above

Row | Substance | Kd [1] [nM] | stoichiometry N (SipAC per actin) [2] | Kd [3] [nM] | koff [3] [s⁻¹] | Kd [4] [nM] | koff [4] [s⁻¹]
1 | SipAC (SipA residues 425-685), unlabelled (from UniProt P0CL52 425-685) (domain or fragment) | 0.18 | 0.5 | 5 |  |  | 
2 | FM-SipAC (SipA residues 425-685 labelled with fluorescein maleimide) (from UniProt P0CL52 425-685) (domain or fragment) |  |  | 0.9 | 0.00304 |  | 
3 | Alexa-647-SipAC (SipA residues 425-685 labelled with Alexa Fluor 647 maleimide) (from UniProt P0CL52 425-685) (domain or fragment) |  |  |  |  | 0.1 | 0.00038
